One block for each molecule: values may come before it.
Legend:
IMP-27 [1] = target: T1, IMP-27 (Proteus mirabilis, UniProt F8UQX1); assay: inhibition of nitrocefin hydrolysis, spectrophotometric initial rates; format: biochemical
T1 construct: gene PCR amplified from 2009 isolate DNA, pET-9a, E. coli BL21(DE3)/pLysS; KF501391 is the class 2 integron record

IMP-27 [2] = target: T1, IMP-27; assay: spectrophotometric initial rates; format: biochemical
Description: spectrophotometric initial rates on IMP-27

[3] = system: C[C@@H](O)[C@H]1C(=O)N2C(C(=O)O)=C(SCCN=CN)C[C@H]12; assay: competition with nitrocefin hydrolysis, spectrophotometric; format: biochemical, Proteus mirabilis; settings: Km measured as Ki with nitrocefin as reporter substrate
Description: (§1) competition with nitrocefin hydrolysis, spectrophotometric on IMP-27

[4] = system: C[C@@H](O)[C@H]1C(=O)N2C(C(=O)O)=C(S[C@@H]3CN[C@H](C(=O)N(C)C)C3)[C@H](C)[C@H]12; assay: as above; format: biochemical, Proteus mirabilis; settings: Km measured as Ki with nitrocefin as reporter substrate
Description: as §1

[5] = system: CC(C)(O/N=C(\C(=O)N[C@@H]1C(=O)N2C(C(=O)[O-])=C(C[n+]3ccccc3)CS[C@H]12)c1csc(N)n1)C(=O)O; assay: spectrophotometric initial hydrolysis rates; format: biochemical, Proteus mirabilis
Description: (§2) spectrophotometric initial hydrolysis rates on IMP-27

[6] = system: CO/N=C(\C(=O)N[C@@H]1C(=O)N2C(C(=O)O)=C(COC(C)=O)CS[C@H]12)c1csc(N)n1; assay: spectrophotometric initial hydrolysis rates; format: biochemical, Proteus mirabilis
Description: as §2

[7] = system: CO/N=C(\C(=O)N[C@@H]1C(=O)N2C(C(=O)[O-])=C(C[N+]3(C)CCCC3)CS[C@H]12)c1csc(N)n1; assay: spectrophotometric initial hydrolysis rates; format: biochemical, Proteus mirabilis
Description: as §2

[8] = system: O=C(Cc1cccs1)N[C@@H]1C(=O)N2C(C(=O)O)=C(/C=C/c3ccc([N+](=O)[O-])cc3[N+](=O)[O-])CS[C@H]12; assay: spectrophotometric initial hydrolysis rates; format: biochemical, Proteus mirabilis
Description: as §2

T1 sequence (F8UQX1 entry or part of it): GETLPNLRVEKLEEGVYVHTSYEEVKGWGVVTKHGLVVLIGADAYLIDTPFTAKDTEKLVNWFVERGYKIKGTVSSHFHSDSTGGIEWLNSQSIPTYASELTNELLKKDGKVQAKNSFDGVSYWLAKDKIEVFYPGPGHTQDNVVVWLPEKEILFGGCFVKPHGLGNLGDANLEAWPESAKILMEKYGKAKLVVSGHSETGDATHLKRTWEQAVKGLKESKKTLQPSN

Ki (IMP-27 [1]; read-out: Ki): 11 ± 0.9 mM
Molecule: O=C(O)CN(CCN(CC(=O)O)CC(=O)O)CC(=O)O [EDTA]

Molecule: C[C@H]1[C@H](NC(=O)/C(=N\OC(C)(C)C(=O)O)c2csc(N)n2)C(=O)N1S(=O)(=O)O [aztreonam]
Ki (IMP-27 [2]): > 23 mM

Molecule: O=C(O)c1cccc(C(=O)O)n1 [dipicolinic acid]
Ki (IMP-27 [1]; read-out: Ki): 4.6 ± 0.13 mM

Molecule: CCN1CCN(C(=O)N[C@@H](C(=O)N[C@@H]2C(=O)N3[C@@H]2SC(C)(C)[C@@H]3C(=O)O)c2ccccc2)C(=O)C1=O [piperacillin]
Ki (IMP-27 [1]; read-out: IMP-27 / Km or Ki): 3 mM

Molecule: IMP-27 (Proteus mirabilis)
Km [3]: 310 ± 19 µM
kcat [3]: 34 ± 0.38 s⁻¹
kcat/Km [3]: 110000 M⁻¹ s⁻¹
Km [4]: 2.3 ± 0.8 µM
kcat [4]: 3.4 ± 0.53 s⁻¹
kcat/Km [4]: 1.5e+06 M⁻¹ s⁻¹
Km [5]: 54 ± 4.3 µM
kcat [5]: 0.7 ± 0.03 s⁻¹
kcat/Km [5]: 13000 M⁻¹ s⁻¹
Km [6]: 24 ± 1.9 µM
kcat [6]: 20 ± 0.66 s⁻¹
kcat/Km [6]: 860000 M⁻¹ s⁻¹
Km [7]: 53 ± 3.6 µM
kcat [7]: 8.1 ± 0.37 s⁻¹
kcat/Km [7]: 150000 M⁻¹ s⁻¹
Km [8]: 36 ± 3.1 µM
kcat [8]: 370 ± 15 s⁻¹
kcat/Km [8]: 1e+07 M⁻¹ s⁻¹

— article PMC5038328, “IMP-27, a Unique Metallo-β-Lactamase Identified in Geographically Distinct Isolates of Proteus mirabilis” (Antimicrobial Agents and Chemotherapy, 2016)
